Reference: patent US20230357447A1 (JANUX THERAPEUTICS, published 2023)

B1: Phage-380 (peptide)
peptide: MDYCPSYLWHECFA
B2: Phage-407 (peptide)
peptide: MNWCPIHMWNQCFA
B3: Phage-377 (peptide)
peptide: MDWCPFDLWLECFN
B4: Phage-408 (peptide)
peptide: MFWCPKDMWAECFA
B5: Phage-381 (peptide)
peptide: MAWCPRILWHQCFN
B6: Phage-412 (peptide)
peptide: QHWCPRDMWNDCYA
B7: Phage-363 (peptide)
peptide: MNWCPMHLWAECFN
B8: Phage-382 (peptide)
peptide: ITWCPTSLWNRCLV
B9: Phage-364 (peptide)
peptide: MDWCPRSLWAQCFY
B10: Phage-365 (peptide)
peptide: MDWCPSYLWPVCFN
B11: Phage-405 (peptide)
peptide: MDWCPMSMWAFCFD
B12: Phage-410 (peptide)
peptide: IDWCPRYMWHECFF
B13: Phage-420 (peptide)
peptide: MFWCPSTMWNRCFD
B14: Phage-414 (peptide)
peptide: LYWCPRDMWAYCYS
B15: Phage-403 (peptide)
peptide: MSWCPWDMWNECFA
B16: Phage-400 (peptide)
peptide: MHWCPTYMWSECFA
B17: Phage-394 (peptide)
peptide: MDWCPRYMWSDCFF
B18: Phage-418 (peptide)
peptide: MYWCPKYMWSECFA
B19: Phage-391 (peptide)
peptide: MDWCPFDMWADCFF
B20: Phage-368 (peptide)
peptide: MSWCPPYLWTVCYN
B21: Phage-362 (peptide)
peptide: MDWCPRILWHECFS
B22: Phage-357 (peptide)
peptide: MDWCPRLLWHECFN
B23: Phage-369 (peptide)
peptide: MHWCPRDLWYECFA
B24: Phage-409 (peptide)
peptide: LHWCPITMWTYCYY
B25: Phage-404 (peptide)
peptide: MDWCPRDMWTSCFN
B26: Phage-361 (peptide)
peptide: MHWCPRHLWSECFN
B27: Phage-402 (peptide)
peptide: MDWCPRHMWHECFH
B28: Phage-396 (peptide)
peptide: TDWCPRDMWYLCFN
B29: Phage-399 (peptide)
peptide: MDWCPRSMWDSCFN
B30: Phage-366 (peptide)
peptide: MHWCPLYLWDECFY
B31: Phage-395 (peptide)
peptide: MDWCPKDMWAECFN
B32: Phage-372 (peptide)
peptide: MDWCPRYLWVDCFA
B33: Phage-422 (peptide)
peptide: MYWCPINMWDYCYA
B34: Phage-375 (peptide)
peptide: MNWCPRALWHECFL
B35: Phage-370 (peptide)
peptide: MTWCPAYLWHECFN
B36: Phage-406 (peptide)
peptide: MNWCPIDMWTECFN
B37: Phage-385 (peptide)
peptide: ILRCQMNLQDECLN
B38: Phage-415 (peptide)
peptide: MDWCPMYMWHKCFH
B39: Phage-398 (peptide)
peptide: MDWCPRNMWNECFF
B40: Phage-383 (peptide)
peptide: LAGCQRDLATVCVI
B41: Phage-413 (peptide)
peptide: MDWCPSDMWSNCFN
B42: Phage-356 (peptide)
peptide: MDWCPMYLWDECFF
B43: Phage-376 (peptide)
peptide: MDWCPRHLWTYCFH
B44: Phage-367 (peptide)
peptide: MDWCPSFLWYECFN
B45: Phage-393 (peptide)
peptide: MDWCPRDMWFECFN
B46: Phage-417 (peptide)
peptide: IYWCPTAMWNRCSA
B47: Phage-373 (peptide)
peptide: MDWCPRILWSDCFN
B48: Phage-374 (peptide)
peptide: MAWCPLDLWDKCFY
B49: Phage-386 (peptide)
peptide: NHWCPTTLWNRCVA
B50: Phage-379 (peptide)
peptide: MDWCPRNLWAECFS
B51: Phage-401 (peptide)
peptide: MDWCPLDMWVLCFA
B52: Phage-397 (peptide)
peptide: MDWCPRAMWDYCFY
B53: Phage-378 (peptide)
peptide: MHWCPLHLWNECFA
B54: Phage-384 (peptide)
peptide: IMWCPTSLWNRCVT
B55: Phage-360 (peptide)
peptide: MDWCPMFLWHECFS
B56: Phage-411 (peptide)
peptide: MSWCPRFMWHECFN

What was measured:
[1] = biological target: T1, Anti-CD28 scFv (VH-linker 1-VL) (biotinylated (site not stated)); assay: phage binding ELISA on captured anti-CD28 scFv, wells pre-incubated with soluble CD28 (competitor);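 also: crude clonal phage supernatants added without washing, bound phage detected by HRP-conjugated anti-M13 antibody, control wells held blocking buffer alone instead of CD28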
T1 construct: biotinylated and captured on neutravidin coated plates in the phage ELISA

[2] = biological target: T1, Anti-CD28 scFv (VH-linker 1-VL); assay: phage binding ELISA on captured biotinylated anti-CD28 scFv;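 also: crude clonal phage supernatants applied to the wells, bound phage read out with an HRP-conjugated anti-M13 antibody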
Protocol: Clonal phage were harvested as crude supernatants and screened via standard enzyme linked immunosorbent assays (ELISAs). […] Prior to the addition of clonal phage, wells were incubated with blocking buffer and CD28 soluble protein or blocking buffer alone. Without washing or aspirating, clonal phage supernatants were then added to the wells and incubated for a short time. Wells were then washed followed by detection of bound phage using a horse radish peroxidase conjugated anti-M13 antibody.

T1 sequence (scFv, as listed by the source): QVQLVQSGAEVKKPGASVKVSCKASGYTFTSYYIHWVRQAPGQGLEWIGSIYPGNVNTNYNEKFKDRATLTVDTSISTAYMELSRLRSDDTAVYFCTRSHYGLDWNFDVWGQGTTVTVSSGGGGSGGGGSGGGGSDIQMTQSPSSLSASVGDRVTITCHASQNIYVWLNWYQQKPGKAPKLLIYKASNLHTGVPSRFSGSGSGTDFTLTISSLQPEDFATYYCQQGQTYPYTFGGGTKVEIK

Binder | CD28 scFv signal in presence of CD28 [1] | CD28 scFv signal [2]
B1 | 0.09 | 0.47
B2 | 0.133 | 1.37
B3 | 0.12 | 0.65
B4 | 0.113 | 1.26
B5 | 0.129 | 0.322
B6 | 0.149 | 1.08
B7 | 0.14 | 1.39
B8 | 0.089 | 0.242
B9 | 0.14 | 1.39
B10 | 0.131 | 1.18
B11 | 0.16 | 1.41
B12 | 0.164 | 1.18
B13 | 0.138 | 0.464
B14 | 0.157 | 1.02
B15 | 0.108 | 1.52
B16 | 0.161 | 1.84
B17 | 0.377 | 2.28
B18 | 0.099 | 0.741
B19 | 0.215 | 2.53

Binder | CD28 scFv signal in presence of CD28 [1] | CD28 scFv signal [2]
B20 | 0.326 | 1.1
B21 | 0.174 | 1.39
B22 | 0.109 | 1.6
B23 | 0.108 | 0.995
B24 | 0.516 | 1.21
B25 | 0.179 | 1.41
B26 | 0.478 | 1.43
B27 | 0.171 | 1.81
B28 | 0.301 | 2.11
B29 | 0.142 | 2.02
B30 | 0.376 | 1.16
B31 | 0.457 | 2.11
B32 | 0.218 | 0.917
B33 | 0.088 | 0.109
B34 | 0.107 | 0.759
B35 | 0.139 | 0.985
B36 | 0.175 | 1.4
B37 | 0.077 | 0.083
B38 | 0.168 | 0.987

Binder | CD28 scFv signal in presence of CD28 [1] | CD28 scFv signal [2]
B39 | 0.43 | 2.1
B40 | 0.116 | 0.229
B41 | 0.121 | 1.07
B42 | 0.178 | 1.65
B43 | 0.207 | 0.757
B44 | 0.104 | 1.13
B45 | 0.778 | 2.42
B46 | 0.073 | 0.817
B47 | 0.113 | 0.847
B48 | 0.141 | 0.77
B49 | 0.093 | 0.078
B50 | 0.08 | 0.538
B51 | 0.169 | 1.84
B52 | 0.339 | 2.11
B53 | 0.083 | 0.575
B54 | 0.129 | 0.161
B55 | 0.193 | 1.44
B56 | 0.246 | 1.11
